# Columns and labels:
# HLA-A*02:01 [1] = assay: IEDB peptide-MHC binding, cellular MHC/competitive/fluorescence; ≥ and ≤ were set here for values at or beyond the usual limits of such assays
# HLA-A*02:03 = assay: as above
# HLA-A*02:06 [2] = assay: as above
# HLA-A*02:02 = assay: IEDB peptide-MHC binding, purified MHC/competitive/radioactivity; ≥ and ≤ were set here for values at or beyond the usual limits of such assays
# HLA-A*68:02 [3] = assay: as above
# HLA-A*68:02 [4] = assay: IEDB peptide-MHC binding, cellular MHC/competitive/fluorescence; ≥ and ≤ were set here for values at or beyond the usual limits of such assays
# HLA-A*02:06 [5] = assay: IEDB peptide-MHC binding, purified MHC/competitive/radioactivity; ≥ and ≤ were set here for values at or beyond the usual limits of such assays
# HLA-A*02:01 [6] = assay: as above
# [7] = source organism: Vaccinia virus WR
# [8] = source organism: Influenza A virus
# [9] = source organism: Mammarenavirus choriomeningitidis
# [10] = source organism: Mammarenavirus whitewaterense
# [11] = source organism: Mammarenavirus brazilense
# [12] = source organism: Mammarenavirus machupoense
Sequence,IC50 (HLA-A*02:01 [1]; [7]) [µM],IC50 (HLA-A*02:03; [7]) [µM],IC50 (HLA-A*02:06 [2]; [7]) [µM],IC50 (HLA-A*02:02; [7]) [µM],IC50 (HLA-A*68:02 [3]; [7]) [µM],IC50 (HLA-A*68:02 [4]; [7]) [µM],IC50 (HLA-A*02:06 [5]; [7]) [µM],also measured
DIYDAVRAFL,5.42,6.95,12.1,1.46,0.257,,,
NQLDSSNKSM,17.1,30,,1.78,,52.7,0.635,
FNPMIVELA,,,,,,,,IC50 (HLA-A*02:01 [1]; [8]): 25.2 µM; IC50 (HLA-A*02:03; [8]): 11.6 µM; IC50 (HLA-A*02:06 [2]; [8]): 12.6 µM; IC50 (HLA-A*02:02; [8]): 0.937 µM; IC50 (HLA-A*68:02 [3]; [8]): 1.62 µM
DVQRTRCKYV,,6.46,9.51,1.07,1.46,,,IC50 (HLA-A*02:01 [6]; [7]): 1570 nM
SCDDVVFGI,,,,,,,,IC50 (HLA-A*02:01 [1]; [9]): 5.61 µM; IC50 (HLA-A*02:03; [9]): 50.5 µM; IC50 (HLA-A*02:06 [2]; [9]): 14.6 µM; IC50 (HLA-A*02:02; [9]): 2.15 µM; IC50 (HLA-A*68:02 [3]; [9]): 0.306 µM
KIDKLTFQI,,10.6,,0.141,,36.9,0.042,IC50 (HLA-A*02:01 [6]; [7]): 134 nM
ITDDSDDYEL,,11.9,,0.687,,11.9,0.049,IC50 (HLA-A*02:01 [6]; [7]): 1730 nM
YVHSLLYSSM,29,6.71,,2.2,,7.25,2.25,
MLIIFWFSL,,,,,,,,IC50 (HLA-A*02:03; source organism: SARS-CoV1): 13 µM; IC50 (HLA-A*68:02 [4]; source organism: SARS-CoV1): 6.91 µM; IC50 (HLA-A*02:01 [6]; source organism: SARS-CoV1): 1160 nM; IC50 (HLA-A*02:02; source organism: SARS-CoV1): 0.132 µM; IC50 (HLA-A*02:06 [5]; source organism: SARS-CoV1): 0.49 µM
QIYLSDSDNI,24.9,19.6,14.9,1.24,0.658,,,
IASILSLET,,7.48,,3.67,,7.76,0.318,IC50 (HLA-A*02:01 [6]; [7]): 2540 nM
RAGYSIVEL,,5.39,5.07,4.94,1.21,,,IC50 (HLA-A*02:01 [6]; [7]): 5000 nM
GLLQFIVFL,,,,,,,,IC50 (HLA-A*02:03; [10]): 7.72 µM; IC50 (HLA-A*68:02 [4]; [10]): 12 µM; IC50 (HLA-A*02:01 [6]; [10]): 0.0075 nM; IC50 (HLA-A*02:02; [10]): 0.0006 µM; IC50 (HLA-A*02:06 [5]; [10]): 0.012 µM
NLEELTTVFI,7.5,6.5,12.3,0.418,1.3,,,
FVETLARSI,,,,,,,,IC50 (HLA-A*02:01 [1]; [8]): 5.26 µM; IC50 (HLA-A*02:03; [8]): 6.18 µM; IC50 (HLA-A*68:02 [4]; [8]): 11.7 µM; IC50 (HLA-A*02:02; [8]): 0.382 µM; IC50 (HLA-A*02:06 [5]; [8]): 4.33 µM
GILHLILWIL,,,,,,,,IC50 (HLA-A*02:01 [1]; [8]): 16.7 µM; IC50 (HLA-A*02:03; [8]): 7.7 µM; IC50 (HLA-A*68:02 [4]; [8]): 8.03 µM; IC50 (HLA-A*02:02; [8]): 4.52 µM; IC50 (HLA-A*02:06 [5]; [8]): 2.54 µM
TQSGALEVLM,10.6,15.4,,0.836,,12.3,2.23,
LLLIVQALR,,,,,,,,IC50 (HLA-A*02:03; [8]): 8.19 µM; IC50 (HLA-A*68:02 [4]; [8]): 42.4 µM; IC50 (HLA-A*02:01 [6]; [8]): 3090 nM; IC50 (HLA-A*02:02; [8]): 1.49 µM; IC50 (HLA-A*02:06 [5]; [8]): 3.15 µM
RSASGGVYL,,,,,,,,IC50 (HLA-A*02:01 [1]; [11]): 32.5 µM; IC50 (HLA-A*02:03; [11]): 14.5 µM; IC50 (HLA-A*02:06 [2]; [11]): 13.6 µM; IC50 (HLA-A*02:02; [11]): 0.278 µM; IC50 (HLA-A*68:02 [3]; [11]): 4.44 µM
LNKSDSSWAV,,,,,,,,IC50 (HLA-A*02:03; [12]): 5.25 µM; IC50 (HLA-A*68:02 [4]; [12]): 8.7 µM; IC50 (HLA-A*02:01 [6]; [12]): 1230 nM; IC50 (HLA-A*02:02; [12]): 0.55 µM; IC50 (HLA-A*02:06 [5]; [12]): 2.19 µM
NIVTDLENRL,19.6,17.6,,0.261,,13.2,1.55,
WLRAKRKPAM,22.5,20.1,11.9,4.67,2.86,,,
IISTDQDTM,5.87,33.2,,4.3,,6.69,2.36,
NVSRVVECLT,9.45,14.3,10,4.66,0.55,,,
VTTNNLLEQL,21.6,17.9,5.91,4.69,2.94,,,
NIEIMDKEQL,,15.5,5.65,3.47,1.38,,,IC50 (HLA-A*02:01 [6]; [7]): 4660 nM
HLTENNLYI,,14.4,,0.114,,5.81,1.81,IC50 (HLA-A*02:01 [6]; [7]): 15 nM
